Experiment [1] deals with T1, Human GPA33 (Novoprotein), recombinant protein immobilized on CM5 chips (human, UniProt Q99795 22-235).
T1 construct: also called GPA33 recombinant protein; Human Glycoprotein A33
T1 sequence: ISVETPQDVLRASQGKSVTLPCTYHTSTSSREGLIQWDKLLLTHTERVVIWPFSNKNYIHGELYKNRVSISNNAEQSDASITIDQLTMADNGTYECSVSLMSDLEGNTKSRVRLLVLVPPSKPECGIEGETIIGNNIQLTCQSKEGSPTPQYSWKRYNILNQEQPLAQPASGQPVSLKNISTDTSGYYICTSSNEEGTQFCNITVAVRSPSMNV
Nature of the experiment: SPR (Biacore T100), GPA33 recombinant protein immobilized on CM5 chip, IgG1 flowed over, 25 °C, 1:1 binding model. As to the method: (§1) SPR analysis. Human GPA33 (Novoprotein, Summit, N.J.) was immobilized on CM5 chips. Five concentrations of 2-fold serially diluted huA33 IgG1 or huA33-BsAbs (starting at 20 nM) were flowed over the chip using a Biacore™ T100 system (GE Healthcare, Chicago, Ill.). Binding kinetics of huA33 were measured at 25° C. and binding kinetics of huA33-BsAbs were measured at both 25° C. and 37° C. The sensorgrams were fitted with 1:1 binding model for both to derive kinetic parameters.

The target of experiment [2] is T1, Human GPA33 (Novoprotein), recombinant …. Briefly: SPR, GPA33 immobilized on CM5 chip, clone in huA33-BsAb format; temperature not given for this table; the KD column head prints no unit.
For experiment [3] the target is unchanged. Nature of the experiment: SPR, KD of the parental huA33-BsAb over KD of the clone. As to the method: as §1

B1: chimeric chA33-IgG1 (antibody, V domains shown)
VH: EVKLVESGGGLVKPGGSLKLSCAASGFAFSTYDMSWVRQTPEKRLEWVATISSGGSYTYYLDSVKGRFTISRDSARNTLYLQMSSLRSEDTALYYCAPTTVVPFAYWGQGTLVTVSA
VL: DIVMTQSQKFMSTSVGDRVSITCKASQNVRTVVAWYQQKPGQSPKTLIYLASNRHTGVPDRFTGSGSGTDFTLTISNVQSEDLADYFCLQHWSYPLTFGSGTKLEVKR
notes: Chimeric antibody with murine A33 variable domains and a human IgG1 constant region; also called chimeric A33; 3A3-chA33
As to B1, in experiment [1], the Kd came out at 0.31 nM, the koff was 0.000628 s⁻¹ and the kon was found to be 2.03e+06 M⁻¹ s⁻¹.

B2: affinity-matured clone 31 in huA33-BsAb format (bispecific antibody, human IgG1, kappa, N297A)
heavy: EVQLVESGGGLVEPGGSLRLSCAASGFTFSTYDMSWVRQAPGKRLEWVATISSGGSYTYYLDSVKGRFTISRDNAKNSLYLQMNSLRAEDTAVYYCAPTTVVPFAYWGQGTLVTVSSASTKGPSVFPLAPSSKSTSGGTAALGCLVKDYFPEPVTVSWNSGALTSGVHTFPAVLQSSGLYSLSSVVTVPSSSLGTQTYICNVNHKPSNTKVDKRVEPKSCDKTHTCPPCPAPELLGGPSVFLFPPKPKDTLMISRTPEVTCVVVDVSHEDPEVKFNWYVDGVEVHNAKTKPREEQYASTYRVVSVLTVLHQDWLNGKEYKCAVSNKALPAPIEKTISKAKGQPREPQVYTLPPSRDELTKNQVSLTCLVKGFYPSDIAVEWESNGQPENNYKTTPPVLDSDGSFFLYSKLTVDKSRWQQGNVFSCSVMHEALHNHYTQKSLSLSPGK
light: DIQMTQSQSSLSTSVGDRVTITCKASQNVRTVVAWYQQKPGKSPKTLIYLASNRHTGVPSRFSGSGSGTEFTLTISNVQPEDFADYFCLQHWSYPLTFGSGTKLEIKRTVAAPSVFIFPPSDEQLKSGTASVVCLLNNFYPREAKVQWKVDNALQSGNSQESVTEQDSKDSTYSLSSTLTLSKADYEKHKVYACEVTHQGLSSPVTKSFNRGECTSGGGGSGGGGSGGGGSQVQLVQSGGGVVQPGRSLRLSCKASGYTFTRYTMHWVRQAPGKCLEWIGYINPSRGYTNYNQKFKDRFTISRDNSKNTAFLQMDSLRPEDTGVYFCARYYDDHYSLDYWGQGTPVTVSSGGGGSGGGGSGGGGSGGGGSGGGGSGGGGSDIQMTQSPSSLSASVGDRVTITCSASSSVSYMNWYQQTPGKAPKRWIYDTSKLASGVPSRFSGSGSGTDYTFTISSLQPEDIATYYCQQWSSNPFTFGCGTKLQITR
For B2, the Kd in experiment [2] worked out at 0.0387 nM. For the same molecule, the “Fold difference/Parental” value in experiment [3] came out at 4.3 fold.

B3: affinity-matured clone 56 in huA33-BsAb format (bispecific antibody, human IgG1, kappa, N297A)
heavy: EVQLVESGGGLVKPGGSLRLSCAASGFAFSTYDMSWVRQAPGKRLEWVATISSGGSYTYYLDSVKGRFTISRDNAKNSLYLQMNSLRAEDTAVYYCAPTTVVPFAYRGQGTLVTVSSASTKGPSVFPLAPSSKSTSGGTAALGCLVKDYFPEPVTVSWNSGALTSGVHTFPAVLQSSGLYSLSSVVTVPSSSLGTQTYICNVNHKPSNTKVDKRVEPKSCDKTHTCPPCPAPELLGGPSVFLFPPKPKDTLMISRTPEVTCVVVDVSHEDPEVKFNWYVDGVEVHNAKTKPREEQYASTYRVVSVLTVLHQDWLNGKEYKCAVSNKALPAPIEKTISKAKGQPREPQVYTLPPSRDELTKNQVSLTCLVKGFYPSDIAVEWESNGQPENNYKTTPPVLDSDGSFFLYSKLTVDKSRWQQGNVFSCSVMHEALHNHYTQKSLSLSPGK
light: DIQMTQSQSSLSTSVGDRVTITCKASQNVRTLVAWYQQKPGKSPKTLIYLASNRHTGVPSRFSGSGSGTEFTLTISNVQPEDFADYFCLQYWSYPLTFGSGTKLEIKRTVAAPSVFIFPPSDEQLKSGTASVVCLLNNFYPREAKVQWKVDNALQSGNSQESVTEQDSKDSTYSLSSTLTLSKADYEKHKVYACEVTHQGLSSPVTKSFNRGECTSGGGGSGGGGSGGGGSQVQLVQSGGGVVQPGRSLRLSCKASGYTFTRYTMHWVRQAPGKCLEWIGYINPSRGYTNYNQKFKDRFTISRDNSKNTAFLQMDSLRPEDTGVYFCARYYDDHYSLDYWGQGTPVTVSSGGGGSGGGGSGGGGSGGGGSGGGGSGGGGSDIQMTQSPSSLSASVGDRVTITCSASSSVSYMNWYQQTPGKAPKRWIYDTSKLASGVPSRFSGSGSGTDYTFTISSLQPEDIATYYCQQWSSNPFTFGCGTKLQITR
Regarding B3, the dissociation constant (Kd) in experiment [2] worked out at 0.0243 nM. The “Fold difference/Parental” value in experiment [3] worked out at 6.9 fold.

B4: affinity-matured clone 48 in huA33-BsAb format (bispecific antibody, human IgG1, kappa, N297A)
heavy: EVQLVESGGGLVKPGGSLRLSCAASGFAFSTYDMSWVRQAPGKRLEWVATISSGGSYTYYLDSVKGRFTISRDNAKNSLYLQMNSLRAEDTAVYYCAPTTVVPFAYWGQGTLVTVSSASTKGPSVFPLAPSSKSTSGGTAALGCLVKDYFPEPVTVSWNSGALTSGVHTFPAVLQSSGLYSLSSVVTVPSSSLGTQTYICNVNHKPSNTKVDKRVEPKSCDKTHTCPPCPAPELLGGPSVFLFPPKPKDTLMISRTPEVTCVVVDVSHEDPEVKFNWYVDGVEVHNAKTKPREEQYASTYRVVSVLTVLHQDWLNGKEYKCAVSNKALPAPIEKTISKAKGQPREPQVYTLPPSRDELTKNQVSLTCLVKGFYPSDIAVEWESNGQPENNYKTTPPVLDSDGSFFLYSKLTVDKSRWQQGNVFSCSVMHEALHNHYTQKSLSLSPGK
light: DIQMTQSQSSLSTSVGDRVTITCKASQNVRTVVAWYQQKPGKSPKTLIYLASDRHTGVPSRFSGSGSGTEFTLTISNVQPEDFADYFCLQYWSYPLTFGSGTKLEIKRTVAAPSVFIFPPSDEQLKSGTASVVCLLNNFYPREAKVQWKVDNALQSGNSQESVTEQDSKDSTYSLSSTLTLSKADYEKHKVYACEVTHQGLSSPVTKSFNRGECTSGGGGSGGGGSGGGGSQVQLVQSGGGVVQPGRSLRLSCKASGYTFTRYTMHWVRQAPGKCLEWIGYINPSRGYTNYNQKFKDRFTISRDNSKNTAFLQMDSLRPEDTGVYFCARYYDDHYSLDYWGQGTPVTVSSGGGGSGGGGSGGGGSGGGGSGGGGSGGGGSDIQMTQSPSSLSASVGDRVTITCSASSSVSYMNWYQQTPGKAPKRWIYDTSKLASGVPSRFSGSGSGTDYTFTISSLQPEDIATYYCQQWSSNPFTFGCGTKLQITR
As to B4, the Kd in experiment [2] turned out to be 0.00329 nM. Moreover, the “Fold difference/Parental” value in experiment [3] was 51 fold.

B5: affinity-matured clone 32 in huA33-BsAb format (bispecific antibody, human IgG1, kappa, N297A)
heavy: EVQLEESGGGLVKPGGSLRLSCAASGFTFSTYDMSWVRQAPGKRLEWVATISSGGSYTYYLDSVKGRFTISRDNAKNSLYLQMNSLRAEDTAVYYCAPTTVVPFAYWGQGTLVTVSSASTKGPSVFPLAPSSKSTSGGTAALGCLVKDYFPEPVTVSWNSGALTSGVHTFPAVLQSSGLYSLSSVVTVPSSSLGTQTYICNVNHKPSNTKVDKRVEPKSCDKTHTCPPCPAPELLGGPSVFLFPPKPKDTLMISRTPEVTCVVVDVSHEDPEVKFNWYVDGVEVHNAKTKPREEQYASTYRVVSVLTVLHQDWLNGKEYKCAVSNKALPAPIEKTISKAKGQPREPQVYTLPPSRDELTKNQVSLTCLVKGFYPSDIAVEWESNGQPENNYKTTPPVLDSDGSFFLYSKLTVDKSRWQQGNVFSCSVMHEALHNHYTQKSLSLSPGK
light: DIQMTQSQSSLSTSVGDRVTITCKASQNVRTVVAWYQQKPGKSPKTLIYLASNRHTGVPSRFSGSGSGTEFTLTISNVQPEDFADYFCLQYWSYPLTFGSGTKLEIKRTVAAPSVFIFPPSDEQLKSGTASVVCLLNNFYPREAKVQWKVDNALQSGNSQESVTEQDSKDSTYSLSSTLTLSKADYEKHKVYACEVTHQGLSSPVTKSFNRGECTSGGGGSGGGGSGGGGSQVQLVQSGGGVVQPGRSLRLSCKASGYTFTRYTMHWVRQAPGKCLEWIGYINPSRGYTNYNQKFKDRFTISRDNSKNTAFLQMDSLRPEDTGVYFCARYYDDHYSLDYWGQGTPVTVSSGGGGSGGGGSGGGGSGGGGSGGGGSGGGGSDIQMTQSPSSLSASVGDRVTITCSASSSVSYMNWYQQTPGKAPKRWIYDTSKLASGVPSRFSGSGSGTDYTFTISSLQPEDIATYYCQQWSSNPFTFGCGTKLQITR
For B5, the equilibrium dissociation constant (Kd) in experiment [2] is 0.00564 nM. The “Fold difference/Parental” value in experiment [3] was found to be 29.7 fold.

B6: affinity-matured clone 53 in huA33-BsAb format (bispecific antibody, human IgG1, kappa, N297A)
heavy: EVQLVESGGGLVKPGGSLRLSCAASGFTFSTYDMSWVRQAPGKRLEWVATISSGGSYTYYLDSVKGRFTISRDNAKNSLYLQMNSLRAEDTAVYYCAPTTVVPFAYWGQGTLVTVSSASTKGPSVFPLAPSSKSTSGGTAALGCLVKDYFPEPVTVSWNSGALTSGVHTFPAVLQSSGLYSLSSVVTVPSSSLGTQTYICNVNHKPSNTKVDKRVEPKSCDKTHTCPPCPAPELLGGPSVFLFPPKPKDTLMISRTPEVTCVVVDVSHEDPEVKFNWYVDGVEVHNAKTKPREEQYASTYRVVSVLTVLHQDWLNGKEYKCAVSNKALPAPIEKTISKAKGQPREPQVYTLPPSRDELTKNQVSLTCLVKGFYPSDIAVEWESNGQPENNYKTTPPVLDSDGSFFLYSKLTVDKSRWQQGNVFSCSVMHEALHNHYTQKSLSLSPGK
light: DIQMTQSQSSLSTSVGDRVTITCKASQNVRTVVAWYQQKPGKSPKTLIYLASNRHTGVPSRFSGSGSGTEFTLTISNVQPEDFADYFCLQYWSYPLTFGSGTKLEIKRTVAAPSVFIFPPSDEQLKSGTASVVCLLNNFYPREAKVQWKVDNALQSGNSQESVTEQDSKDSTYSLSSTLTLSKADYEKHKVYACEVTHQGLSSPVTKSFNRGECTSGGGGSGGGGSGGGGSQVQLVQSGGGVVQPGRSLRLSCKASGYTFTRYTMHWVRQAPGKCLEWIGYINPSRGYTNYNQKFKDRFTISRDNSKNTAFLQMDSLRPEDTGVYFCARYYDDHYSLDYWGQGTPVTVSSGGGGSGGGGSGGGGSGGGGSGGGGSGGGGSDIQMTQSPSSLSASVGDRVTITCSASSSVSYMNWYQQTPGKAPKRWIYDTSKLASGVPSRFSGSGSGTDYTFTISSLQPEDIATYYCQQWSSNPFTFGCGTKLQITR
For the molecule B6, the Kd in experiment [2] worked out at 0.0175 nM. In experiment [3], the “Fold difference/Parental” value amounted to 9.6 fold.

B7: affinity-matured clone 49 in huA33-BsAb format (bispecific antibody, human IgG1, kappa, N297A)
heavy: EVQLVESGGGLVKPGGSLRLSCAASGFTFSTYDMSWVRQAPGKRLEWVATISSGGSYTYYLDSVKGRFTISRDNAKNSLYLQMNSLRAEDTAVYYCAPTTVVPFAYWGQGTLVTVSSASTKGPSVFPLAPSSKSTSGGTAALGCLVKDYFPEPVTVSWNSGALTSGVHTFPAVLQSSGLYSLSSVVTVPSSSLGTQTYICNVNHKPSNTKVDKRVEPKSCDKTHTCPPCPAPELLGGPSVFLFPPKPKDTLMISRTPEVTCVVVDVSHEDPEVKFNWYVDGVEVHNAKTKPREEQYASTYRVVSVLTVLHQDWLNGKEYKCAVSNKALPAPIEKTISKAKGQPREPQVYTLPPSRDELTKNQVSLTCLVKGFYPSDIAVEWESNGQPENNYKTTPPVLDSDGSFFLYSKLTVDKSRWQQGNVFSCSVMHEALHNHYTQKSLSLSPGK
light: DIQMTQSQSSLSTSVGDRVTITCKASQNVRTLVAWYQQKPGKSPKTLIYLASNRHTGVPSRFSGSGSGTEFTLTISNVQPEDFADYFCLQHWSYPLTFGSGTKLEIKRTVAAPSVFIFPPSDEQLKSGTASVVCLLNNFYPREAKVQWKVDNALQSGNSQESVTEQDSKDSTYSLSSTLTLSKADYEKHKVYACEVTHQGLSSPVTKSFNRGECTSGGGGSGGGGSGGGGSQVQLVQSGGGVVQPGRSLRLSCKASGYTFTRYTMHWVRQAPGKCLEWIGYINPSRGYTNYNQKFKDRFTISRDNSKNTAFLQMDSLRPEDTGVYFCARYYDDHYSLDYWGQGTPVTVSSGGGGSGGGGSGGGGSGGGGSGGGGSGGGGSDIQMTQSPSSLSASVGDRVTITCSASSSVSYMNWYQQTPGKAPKRWIYDTSKLASGVPSRFSGSGSGTDYTFTISSLQPEDIATYYCQQWSSNPFTFGCGTKLQITR
For the molecule B7, the Kd in experiment [2] is 0.022 nM. For the same molecule, in experiment [3], the “Fold difference/Parental” value was 7.6 fold.

B8: affinity-matured clone 57 in huA33-BsAb format (bispecific antibody, human IgG1, kappa, N297A)
heavy: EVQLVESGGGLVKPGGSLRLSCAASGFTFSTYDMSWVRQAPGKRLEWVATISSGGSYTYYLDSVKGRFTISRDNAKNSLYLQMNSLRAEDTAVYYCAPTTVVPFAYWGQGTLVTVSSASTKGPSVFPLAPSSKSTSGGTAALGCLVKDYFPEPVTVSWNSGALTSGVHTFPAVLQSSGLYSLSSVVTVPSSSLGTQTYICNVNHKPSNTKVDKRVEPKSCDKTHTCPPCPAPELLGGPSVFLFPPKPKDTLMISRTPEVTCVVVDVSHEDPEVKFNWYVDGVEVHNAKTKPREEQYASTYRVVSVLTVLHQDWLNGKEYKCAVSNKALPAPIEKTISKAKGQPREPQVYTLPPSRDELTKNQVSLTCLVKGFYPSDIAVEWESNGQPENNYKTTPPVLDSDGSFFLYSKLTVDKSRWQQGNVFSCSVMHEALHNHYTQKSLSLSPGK
light: DIQMTQSQSSLSTSVGDSVTITCKASQNVRTVVAWYQQKPGKSPKTLIYLASNRHTGVPSRFSGSGSGTEFTLTISNVQPEDVADYFCLQYWSYPLTFGSGTKLEIKRTVAAPSVFIFPPSDEQLKSGTASVVCLLNNFYPREAKVQWKVDNALQSGNSQESVTEQDSKDSTYSLSSTLTLSKADYEKHKVYACEVTHQGLSSPVTKSFNRGECTSGGGGSGGGGSGGGGSQVQLVQSGGGVVQPGRSLRLSCKASGYTFTRYTMHWVRQAPGKCLEWIGYINPSRGYTNYNQKFKDRFTISRDNSKNTAFLQMDSLRPEDTGVYFCARYYDDHYSLDYWGQGTPVTVSSGGGGSGGGGSGGGGSGGGGSGGGGSGGGGSDIQMTQSPSSLSASVGDRVTITCSASSSVSYMNWYQQTPGKAPKRWIYDTSKLASGVPSRFSGSGSGTDYTFTISSLQPEDIATYYCQQWSSNPFTFGCGTKLQITR
On to B8, for which, in experiment [2], the Kd was determined as 0.0156 nM. Moreover, the “Fold difference/Parental” value in experiment [3] turned out to be 10.7 fold.

The record behind these values is patent publication US20200291112A1 (Memorial Sloan Kettering, published 2020).
